The source of these data is paper PMC7117682, “A homogeneous SIRPα-CD47 cell-based, ligand-binding assay: Utility for small molecule drug development in immuno-oncology” (PLoS ONE, 2020).

What all share (details): one partner purified
In test [1] the target is T1, CD47 naturally expressed on CD47(+) Jurkat T lymphoma cells (human (endogenous in Jurkat), UniProt Q08722 19-323).
T1 construct: CD47, human, endogenous on the surface of Jurkat T lymphoma cells; also called cell-expressed CD47; native, cell surface expressed CD47; source: endogenous, on Jurkat cells (live or fixed in 4% paraformaldehyde)
T1 sequence (Q08722 19-323): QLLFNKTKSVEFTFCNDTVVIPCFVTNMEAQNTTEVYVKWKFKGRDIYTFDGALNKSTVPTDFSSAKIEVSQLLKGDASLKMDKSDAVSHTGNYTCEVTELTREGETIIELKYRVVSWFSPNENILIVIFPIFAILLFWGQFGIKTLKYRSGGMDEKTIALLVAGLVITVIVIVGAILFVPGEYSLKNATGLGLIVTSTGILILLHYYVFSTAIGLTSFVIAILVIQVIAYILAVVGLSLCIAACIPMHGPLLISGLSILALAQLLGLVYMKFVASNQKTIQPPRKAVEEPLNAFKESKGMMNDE
Briefly: laser scanning cytometry (LSC) on cells; titration of SIRPα-biotin on live DRAQ5-labelled Jurkat cells, 384-well, homogeneous (no wash), HEPES buffer (10 mM HEPES pH 7.5, 0.15 M NaCl), room temperature, neutravidin-Alexa488 0.5 μg/mL; SIRPα presented as a multimer on tetrameric neutravidin (avidity).

The target of test [2] is T1, CD47 naturally expressed on CD47(+) …. The test can be described thus: laser scanning cytometry (LSC) on cells; titration of SIRPα-biotin on Jurkat cells fixed in 4% paraformaldehyde (30 min on ice), homogeneous, neutravidin-Alexa488; with or without 1% DMSO.
Test [3] has the same target. The test can be described thus: laser scanning cytometry (LSC) on cells; competition on live CD47(+) Jurkat cells, 384-well, homogeneous: a fixed concentration of SIRPα-biotin (20 nM) co-incubated with a titration of the competitor or inhibitor, neutravidin-Alexa488.

B1: SIRPα-Avi-biotin (soluble, biotin-conjugated SIRPα d1 construct; allelic variant not stated for the experiment) (domain or fragment)
chain: EELQVIQPDKSVLVAAGETATLRCTATSLIPVGPIQWFRGAGPGRELIYNQKEGHFPRVTTVSDLTKRNNMDFSIRIGNITPADAGTYYCVKFRKGSPDDVEFKSG
modifications: biotin (biotin-conjugated, SIRPα-Avi-biotin)
Turning to B1, the figures for the EC50 in test [1] and in test [2] were 4.6 nM and 1.3 nM, respectively.

B2: SIRPα variant 1, non-biotin conjugated (cold) (domain or fragment, human, UniProt P78324 31-148, looked up)
chain: EEELQVIQPDKSVLVAAGETATLRCTATSLIPVGPIQWFRGAGPGRELIYNQKEGHFPRVTTVSDLTKRNNMDFSIRIGNITPADAGTYYCVKFRKGSPDDVEFKSGAGTELSVRAKP
notes: SIRPα allelic variant 1, human; non-biotin conjugated analog of the biotin-conjugated d1 construct; also called cold SIRPαV1; non-biotin conjugated SIRPαV1; source: produced as described in [33]
For the molecule B2, the half-maximal inhibitory concentration (IC50) in test [3] is 7500 nM.

What is called EC50 is the concentration that produces a half-maximal response. Higher therefore signals weaker potency. As a reminder, the IC50 is the concentration at which inhibition is half-maximal.
